Results as given in patent US20260217793A1 (Chugai, published 2026).

Legend:
Experiment in all cases: SPR
mouse FcγRIII = target: T1, mouse FcγRIII (mouse, UniProt P08508 31-215)
T1 sequence (looked up): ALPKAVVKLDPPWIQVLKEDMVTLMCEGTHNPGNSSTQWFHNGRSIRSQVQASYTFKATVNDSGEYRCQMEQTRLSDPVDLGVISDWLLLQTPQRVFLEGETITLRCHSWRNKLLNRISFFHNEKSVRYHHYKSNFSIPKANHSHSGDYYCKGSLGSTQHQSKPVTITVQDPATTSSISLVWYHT

FcγRIIaR = target: T2, FcγRIIaR (human, UniProt P12318 34-217)
T2 sequence (looked up): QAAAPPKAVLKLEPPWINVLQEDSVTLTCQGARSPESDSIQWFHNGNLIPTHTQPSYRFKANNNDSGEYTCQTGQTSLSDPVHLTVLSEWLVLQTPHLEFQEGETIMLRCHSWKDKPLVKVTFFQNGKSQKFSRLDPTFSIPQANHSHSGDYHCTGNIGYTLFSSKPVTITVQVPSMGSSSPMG

FcγRIIaH = target: T3, FcγRIIaH (human, UniProt P12318 34-217)
T3 sequence (looked up): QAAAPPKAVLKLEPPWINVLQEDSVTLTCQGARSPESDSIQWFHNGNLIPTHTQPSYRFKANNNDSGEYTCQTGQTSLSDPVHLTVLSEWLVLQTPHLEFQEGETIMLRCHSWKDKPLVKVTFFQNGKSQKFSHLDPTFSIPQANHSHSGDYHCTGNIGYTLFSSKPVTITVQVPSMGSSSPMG

[1] = target: T4, human FcγRIIb extracellular domain with C-terminal His tag (human, UniProt P31994 43-217)
T4 sequence (looked up): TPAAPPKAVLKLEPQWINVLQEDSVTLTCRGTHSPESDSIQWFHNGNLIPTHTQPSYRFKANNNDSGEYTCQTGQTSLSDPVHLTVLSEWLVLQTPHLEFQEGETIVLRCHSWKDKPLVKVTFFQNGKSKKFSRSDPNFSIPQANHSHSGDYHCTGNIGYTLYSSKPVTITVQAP

[2] = target: T4, human FcγRIIb extracellular domain with …; remark: listed apart in the source
[3] = target: T4, human FcγRIIb extracellular domain with …; remark: listed apart in the source
[4] = target: T5, human FcγRIIa type R (Arg131) extracellular domain with C-terminal His tag (human, UniProt P12318 34-217)
T5 sequence (looked up): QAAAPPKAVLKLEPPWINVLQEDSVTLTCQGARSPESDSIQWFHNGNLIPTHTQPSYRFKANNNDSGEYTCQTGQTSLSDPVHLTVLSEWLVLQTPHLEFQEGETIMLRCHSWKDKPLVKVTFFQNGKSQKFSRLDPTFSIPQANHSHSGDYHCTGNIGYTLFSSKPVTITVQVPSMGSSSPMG

[5] = target: human FcγRIIIa type V (Val158) extracellular domain with C-terminal His tag (human, UniProt P08637 17-208)
[6] = target: T6, human FcγRIIa type H (His131) extracellular domain with C-terminal His tag (human, UniProt P12318 34-217)
T6 sequence (looked up): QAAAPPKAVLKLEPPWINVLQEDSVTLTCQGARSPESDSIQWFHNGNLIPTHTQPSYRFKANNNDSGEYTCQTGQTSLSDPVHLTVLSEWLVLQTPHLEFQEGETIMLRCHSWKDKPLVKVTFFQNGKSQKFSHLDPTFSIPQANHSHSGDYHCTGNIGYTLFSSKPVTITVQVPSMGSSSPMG

[7] = target: T4, human FcγRIIb extracellular domain with …; remark: listed apart in the source
[8] = target: human FcγRIa extracellular domain with C-terminal His tag (human, UniProt P12314 16-292)
[9] = target: T5, human FcγRIIa type R (Arg131) …; remark: listed apart in the source

Sequence of human FcγRIIIa type V (Val158) extracellular domain with C-terminal His tag (P08637 17-208 F176V): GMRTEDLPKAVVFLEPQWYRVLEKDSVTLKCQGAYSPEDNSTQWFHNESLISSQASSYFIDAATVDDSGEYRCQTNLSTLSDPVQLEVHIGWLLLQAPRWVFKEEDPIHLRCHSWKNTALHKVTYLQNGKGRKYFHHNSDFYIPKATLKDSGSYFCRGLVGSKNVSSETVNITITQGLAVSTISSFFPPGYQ
Sequence of human FcγRIa extracellular domain with C-terminal His tag (P12314 16-292): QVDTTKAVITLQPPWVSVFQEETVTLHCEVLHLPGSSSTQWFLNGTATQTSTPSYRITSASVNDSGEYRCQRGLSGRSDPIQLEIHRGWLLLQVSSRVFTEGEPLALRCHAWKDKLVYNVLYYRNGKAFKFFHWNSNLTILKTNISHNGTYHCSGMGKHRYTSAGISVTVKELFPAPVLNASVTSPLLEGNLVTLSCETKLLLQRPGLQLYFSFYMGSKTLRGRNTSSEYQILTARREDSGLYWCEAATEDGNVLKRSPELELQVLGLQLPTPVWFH

| Binder | KD (IIaH)/KD (IIb) [2] | KD (IIb) of parent polypeptide/KD (IIb) of altered polypeptide [3] | KD (IIaR) of parent polypeptide/KD (IIaR) of altered polypeptide [4] | Kd [5] [µM] | Kd [8] [µM] | also measured |
| --- | --- | --- | --- | --- | --- | --- |
| VH3/L(WT)-mIgG1 (antibody) heavy: QVQLQESGPGLVKPSETLSLTCAVSGHSISHDHAWSWVRQPPGEGLEWIGFISYSGITNYNPSLQGRVTISRDNSKNTLYLQMNSLRAEDTAVYYCARSLARTTAMDYWGEGTLVTVSSAKTTPPSVYPLAPGSAAQTNSMVTLGCLVKGYFPEPVTVTWNSGSLSSGVHTFPAVLQSDLYTLSSSVTVPSSTWPSETVTCNVAHPASSTKVDKKIVPRDCGCKPCICTVPEVSSVFIFPPKPKDVLTITLTPKVTCVVVDISKDDPEVQFSWFVDDVEVHTAQTQPREEQFNSTFRSVSELPIMHQDWLNGKEFKCRVNSAAFPAPIEKTISKTKGRPKAPQVYTIPPPKEQMAKDKVSLTCMITDFFPEDITVEWQWNGQPAENYKNTQPIMDTDGSYFVYSKLNVQKSNWEAGNTFTCSVLHEGLHNHHTEKSLSHSPGK light: not shown | – | – | – | – | – | Kd (mouse FcγRIII): 0.282 µM |
| IL6R-BP144/IL6R-L (antibody, human IgG1, kappa) heavy: QVQLQESGPGLVKPSETLSLTCAVSGHSISHDHAWSWVRQPPGEGLEWIGFISYSGITNYNPSLQGRVTISRDNSKNTLYLQMNSLRAEDTAVYYCARSLARTTAMDYWGEGTLVTVSSASTKGPSVFPLAPSSKSTSGGTAALGCLVKDYFPEPVTVSWNSGALTSGVHTFPAVLQSSGLYSLSSVVTVPSSSLGTQTYICNVNHKPSNTKVDKKVEPKSCDKTHTCPPCPAPELLGDDSVFLFPPKPKDTLMISRTPEVTCVVVDVSHEDPEVKFNWYVDGVEVHNAKTKPREEQYNSTYRVVSVLTVLHQDWLNGKEYKCKVSNAALPAPIEKTISKAKGQPREPQVYTLPPSRDELTKNQVSLTCLVKGFYPSDIAVEWESNGQPENNYKTTPPVLDSDGSFFLYSKLTVDKSRWQQGNVFSCSVMHEALHNHYTQESLSLSP light: not shown | – | – | – | – | – | Kd (FcγRIIaR): 5.9 µM |
| IL6R-BP146/IL6R-L (antibody, human IgG1, kappa) heavy: QVQLQESGPGLVKPSETLSLTCAVSGHSISHDHAWSWVRQPPGEGLEWIGFISYSGITNYNPSLQGRVTISRDNSKNTLYLQMNSLRAEDTAVYYCARSLARTTAMDYWGEGTLVTVSSASTKGPSVFPLAPSSKSTSGGTAALGCLVKDYFPEPVTVSWNSGALTSGVHTFPAVLQSSGLYSLSSVVTVPSSSLGTQTYICNVNHKPSNTKVDKKVEPKSCDKTHTCPPCPAPEYLGDDSVFLFPPKPKDTLMISRTPEVTCVVVDVSHEDPEVKFNWYVDGVEVHNAKTKPREEQYNSTYRVVSVLTVLHQDWLNGKEYKCKVSNAALPAPIEKTISKAKGQPREPQVYTLPPSRDELTKNQVSLTCLVKGFYPSDIAVEWESNGQPENNYKTTPPVLDSDGSFFLYSKLTVDKSRWQQGNVFSCSVMHEALHNHYTQESLSLSP light: not shown | – | – | – | – | – | Kd (FcγRIIaH): 16 µM |
| IL6R-BP567/IL6R-L (antibody, human IgG1, kappa) heavy: QVQLQESGPGLVKPSETLSLTCAVSGHSISHDHAWSWVRQPPGEGLEWIGFISYSGITNYNPSLQGRVTISRDNSKNTLYLQMNSLRAEDTAVYYCARSLARTTAMDYWGEGTLVTVSSASTKGPSVFPLAPSSKSTSGGTAALGCLVKDYFPEPVTVSWNSGALTSGVHTFPAVLQSSGLYSLSSVVTVPSSSLGTQTYICNVNHKPSNTKVDKKVEPKSCDKTHTCPPCPAPDLLGGDSVFLFPPKPKDTLMISRTPEVTCVVIDVAEEDGEVKFNWYVDGVEVHNAKTKPREEQDNSTYRVVSVLTVLHQDWLNGKEYKCKVSNKALPAPIEKTISKAKGQPREPQVYTLPPSRDELTKNQVSLTCLVKGFYPSDIAVEWESNGQPENNYKTTPPVLDSDGSFFLYSKLTVDKSRWQQGNVFSCSVMHEALHNHYTQESLSLSP light: not shown | 1230 | 225 | 1.2 | 39 | 0.00021 | KD (IIaR)/KD (IIb) [1]: 64.4; Kd [6]: 17 µM; Kd [7]: 0.014 µM; Kd [9]: 0.89 µM |
| IL6R-BP568/IL6R-L (antibody, human IgG1, kappa) heavy: QVQLQESGPGLVKPSETLSLTCAVSGHSISHDHAWSWVRQPPGEGLEWIGFISYSGITNYNPSLQGRVTISRDNSKNTLYLQMNSLRAEDTAVYYCARSLARTTAMDYWGEGTLVTVSSASTKGPSVFPLAPSSKSTSGGTAALGCLVKDYFPEPVTVSWNSGALTSGVHTFPAVLQSSGLYSLSSVVTVPSSSLGTQTYICNVNHKPSNTKVDKKVEPKSCDKTHTCPPCPAPDLLGGDSVFLFPPKPKDTLMISRTPEVTCVVIDVAEEDGEVKFNWYVDGVEVHNAKTKPREEQYNSTYRVVSVLTVLHQDWLNGKEYKCKVSNKALPAPIEKTISKAKGQPREPQVYTLPPSRDELTKNQVSLTCLVKGFYPSDIAVEWESNGQPENNYKTTPPVLDSDGSFFLYSKLTVDKSRWQQGNVFSCSVMHEALHNHYTQESLSLSP light: not shown | 748 | 211 | 1.6 | 25 | 0.00019 | KD (IIaR)/KD (IIb) [1]: 46.1; Kd [6]: 11 µM; Kd [7]: 0.015 µM; Kd [9]: 0.68 µM |
| IL6R-BP550/IL6R-L (antibody, human IgG1, kappa) heavy: QVQLQESGPGLVKPSETLSLTCAVSGHSISHDHAWSWVRQPPGEGLEWIGFISYSGITNYNPSLQGRVTISRDNSKNTLYLQMNSLRAEDTAVYYCARSLARTTAMDYWGEGTLVTVSSASTKGPSVFPLAPSSKSTSGGTAALGCLVKDYFPEPVTVSWNSGALTSGVHTFPAVLQSSGLYSLSSVVTVPSSSLGTQTYICNVNHKPSNTKVDKKVEPKSCDKTHTCPPCPAPELLGDDSVFLFPPKPKDTLMISRTPEVTCVVIDVGEEDGDVKFNWYVDGVEVHNAKTKPREEQDNSTYRVVSVLTVLHQDWLNGKEYKCKVSNKALPRPIEKTISKAKGQPREPQVYTLPPSRDELTKNQVSLTCLVKGFYPSDIAVEWESNGQPENNYKTTPPVLDSDGSFFLYSKLTVDKSRWQQGNVFSCSVMHEALHNHYTQESLSLSP light: not shown | 656 | 406 | 3.3 | 48 | – | – |
| IL6R-BP558/IL6R-L (antibody, human IgG1, kappa) heavy: QVQLQESGPGLVKPSETLSLTCAVSGHSISHDHAWSWVRQPPGEGLEWIGFISYSGITNYNPSLQGRVTISRDNSKNTLYLQMNSLRAEDTAVYYCARSLARTTAMDYWGEGTLVTVSSASTKGPSVFPLAPSSKSTSGGTAALGCLVKDYFPEPVTVSWNSGALTSGVHTFPAVLQSSGLYSLSSVVTVPSSSLGTQTYICNVNHKPSNTKVDKKVEPKSCDKTHTCPPCPAPELLGDDSVFLFPPKPKDTLMISRTPEVTCVVIDVGEEDGDVKFNWYVDGVEVHNAKTKPREEQYNSTYRVVSVLTVLHQDWLNGKEYKCKVSNKALPRPIEKTISKAKGQPREPQVYTLPPSRDELTKNQVSLTCLVKGFYPSDIAVEWESNGQPENNYKTTPPVLDSDGSFFLYSKLTVDKSRWQQGNVFSCSVMHEALHNHYTQESLSLSP light: not shown | – | – | – | 36 | 0.015 | – |
